From paper PMC5666606 (The EMBO Journal, 2017)

How the values were obtained:
RBPJ-(53-474) [1] = target: T1, RBPJ-(53-474) (mouse, UniProt P31266 53-474); assay: ITC
RBPJ-(53-474) [2] = target: T1, RBPJ-(53-474); assay: ITC; remark: listed apart in the source

T1 sequence (P31266 53-474): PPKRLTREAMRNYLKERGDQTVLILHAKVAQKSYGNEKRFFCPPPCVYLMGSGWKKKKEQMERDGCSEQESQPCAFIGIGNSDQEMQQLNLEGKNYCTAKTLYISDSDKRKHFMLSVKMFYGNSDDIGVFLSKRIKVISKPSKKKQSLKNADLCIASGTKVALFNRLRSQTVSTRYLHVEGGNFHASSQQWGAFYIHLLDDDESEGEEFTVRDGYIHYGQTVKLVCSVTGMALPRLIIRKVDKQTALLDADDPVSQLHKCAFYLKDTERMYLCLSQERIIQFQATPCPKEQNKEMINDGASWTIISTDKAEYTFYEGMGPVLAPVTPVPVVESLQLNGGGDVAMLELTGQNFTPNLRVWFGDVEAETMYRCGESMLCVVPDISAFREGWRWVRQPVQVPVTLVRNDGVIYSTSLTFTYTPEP

stoichiometry N (RBPJ-(53-474) [1]): 1
Ka (RBPJ-(53-474) [2]): 2.27e+06 M⁻¹
Kd (RBPJ-(53-474) [2]): 450 nM
dH (RBPJ-(53-474) [2]): -7.52 kcal/mol
Binder: SDLKFRVNEFGALEVITDENEMENVKKATATTTWMVPTAQ (domain or fragment, human, UniProt Q96JM7 31-70, looked up) [L3MBTL3-(31-70)]
